Numbering of substitutions follows the chain as printed. In names and notes the source's numbering stands. Several values for one entry are separate records, joined by “and”; a condition that tells them apart may be missing. Identical values can stand only once.
B1: B234 (antibody, human IgG1, V domains shown)
VH: EVKLVESGGDLVKPGGSLKLSCAASGFTFSSYAMSWVRQNPEKRLEWVASISKGGNTYYPNSVKGRFTISRDNARNILYLQMSSLRSEDTALYYCARGWGDYGWFAYWGQVTLVTVSA
VL: DIKMTQSPSSMYASLGERVTITCKASQDINRYLNWFQQKPGKSPKTLIYRANRLLDGVPSRFSGSGSGQDYSLTISSLDYEDMGIYYCLQYDEFPLTFGDGTKLELK
notes: Mouse PT3 variable regions (VH10/VL7) with human IgG1/kappa constant region; also called mouse PT3, hIgG1
B2: B296 (antibody, human IgG1, kappa, V domains shown)
VH: QVQLVESGGGVVQPGRSLRLSCAASGFTFSSYAMSWVRQAPGKGLEWVASISKGGNTYYADSVKGRFTISRDNSKNTLYLQMNSLRAEDTAVYYCARGWGDYGWFAYWGQVTLVTVSS
VL: DIQMTQSPSSLSASVGDRVTITCKASQDINRYLNWFQQKPGKAPKSLIYRANRLLDGVPSRFSGSGSGTDFTLTISSLQPEDFATYYCLQYDEFPLTFGQGTKLEIKR
notes: Humanized PT3, human IgG1/kappa; also called VH92/VL77; HFA-PT3
B3: B252 (antibody, human IgG1, V domains shown)
VH: B2 VH with V11L, Q13K, R16G, V37I, A49S, S74A, T77S
VL: DIVMTQTPLSSPVTLGQPASISCKASQDINRYLNWLQQRPGQPPRLLIYRANRLLDGVPDRFSGSGAGTDFTLKISRVEAEDVGVYYCLQYDEFPLTFGQGTKLEIK
notes: Humanized (HFA) PT3 variant, human IgG1/kappa; also called VH93/VL80
B4: B282 (antibody, human IgG1, V domains shown)
VH: B2 VH with V11L, Q13K, R16G, V37I, A49S, S74A, T77S
VL: DIQMTQSPSSLSASVGDRVTITCKASQDINRYLNWFQQKPGKAPKSLIYRANRLLDGVPSRFSGSGSGTDFTLTISSLQPEDFATYYCLQYDEFPLTFGQGTKLEIK
notes: Humanized (HFA) PT3 variant, human IgG1/kappa; also called VH93/VL77
B5: B333 (antibody, human IgG1, kappa, V domains shown)
VH: B2 VH
VL: B2 VL with Y32W
notes: also called PT1B333
B6: B809 (antibody, human IgG1, kappa, V domains shown)
VH: B2 VH with S30T, S52T, D101I
VL: B2 VL
notes: also called PT1B809
B7: B331 (Fab of B333) (Fab, V domains shown)
VH: B2 VH
VL: B4 VL with Y32W
B8: B332 (Fab of B809) (Fab, V domains shown)
VH: B2 VH with S30T, S52T, D101I
VL: B4 VL
B9: B352 (IgG4 mAb) (antibody, V domains shown)
VH: B2 VH
VL: B4 VL
notes: IgG4 variant of B296 with the same variable regions; also called B296 as hIgG4
B10: B297 (antibody, human IgG1, V domains shown)
VH: B2 VH with V11L, Q13K, R16G, V37I, A49S, S74A, T77S
VL: B4 VL with D56S
notes: Humanized (HFA) PT3 variant, human IgG1/kappa; it is built from VL77 with D56S; also called VH93/VL78

Target: T1, Peptide-8 (human, phosphothreonine 212 (tau 2N4R numbering); SCBiot and dPEG4 at the N-terminus; amide at the C-terminus)
T1 construct: also called pT212-tau peptide (Peptide-8)
T1 sequence (peptide, as listed by the source): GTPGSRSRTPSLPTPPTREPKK
Experiment: SPR ProteOn, mAb captured by anti-human Fc, peptide as analyte
Description: (§1) A subset of HFA-PT3 monoclonal antibody variants, selected based on biophysical characterization and ELISA binding to PHF, were analyzed by Surface Plasmon Resonance (SPR) with a ProteOn XPR36 for binding to the following phosphopeptides: pT212/pT217-tau peptide (Peptide-2, SEQ ID NO: 48) and pT212-tau peptide (Peptide-8, SEQ ID NO: 54). All experiments were performed at 25° C. using PBST, pH 7.4, (Bio-Rad Cat#176-2720) as both running buffer and sample dilution buffer.
(§2) Monoclonal antibody/Peptide binding. […] Anti-human IgG was amine-coupled to the chip surface using EDC/NHS, then washed with ethanolamine. Antibodies were diluted to 2 μg/mL in PBST and injected on the surface for 5 min at 30 μL/min to achieve a maximum density of 900-1000 RU. Peptides were injected as analytes at 60 μL/min for 3 min, followed by 5 min dissociation. Peptide-2 was diluted in PBST to generate a three-fold concentration series (0-30 nM) and measured in duplicate. Single measurements of monoclonal antibody binding to Peptide-8 were recorded over the concentration range 0-100 nM.
(§3) Data were double referenced by subtraction of the interspot response, and the curves generated by the buffer only injection. The chip surface was regenerated with 0.85% phosphoric acid, followed by PBST injection before the next antibody titration injection. Data processing and analysis were performed using instrument software. The data were fit using a simple Langmuir 1:1 binding model.

| Kd [nM] | koff [s⁻¹] | kon [M⁻¹ s⁻¹] | Binder |
| --- | --- | --- | --- |
| 3.48 | 0.00802 | 2.31e+06 | B1 |
| 26.8 | 0.023 | 856000 | B2 |
| 32.6 | 0.0242 | 742000 | B3 |
| 86.5 | 0.0382 | 442000 | B4 |

Target: T2, tau phospho-peptide of the direct ELISA of Example 11
T2 construct: also called pT217 peptide; pT212/pT217 peptide
Experiment: direct ELISA on plate-coated tau phospho-peptide (10 ng/mL), detection with HRPO-labelled anti-Fab antibody
Description: (§4) Binding to tau phospho-peptide was analysed by ELISA where peptide (10 ng/mL) was directly coated to the plate overnight. […] After incubation with antibodies, plates were washed and 50 μL per well of HRPO labelled anti-Fab antibody (Jackson Immunoresearch laboratories) (diluted 1:10000 in blocking buffer). After another washing step detection was performed with “One step” TMB (Thermo Scientific) according to the manufacturers' instructions. Plates were analysed in EnVision® 2102 Multilabel Reader (Perkin Elmer, Waltham, Mass., USA). Binding curves were generated using GraphPad Prism7.0 software.

| EC50 (read off the curve) [nM] | Binder |
| --- | --- |
| ~0.3 | B2 |
| ~0.09 | B5 |
| ~0.06 | B6 |

Target: T3, PHF-tau (paired helical filament tau isolated from Alzheimer's disease brain) (human, UniProt P10636-8 2-441, limits assumed, hyper-phosphorylated, aggregated; sites not listed for the preparation)
T3 construct: also called enriched PHF-tau; ePHF-tau
T3 sequence (P10636 other isoform, or with tags, fused parts or gaps limits assumed): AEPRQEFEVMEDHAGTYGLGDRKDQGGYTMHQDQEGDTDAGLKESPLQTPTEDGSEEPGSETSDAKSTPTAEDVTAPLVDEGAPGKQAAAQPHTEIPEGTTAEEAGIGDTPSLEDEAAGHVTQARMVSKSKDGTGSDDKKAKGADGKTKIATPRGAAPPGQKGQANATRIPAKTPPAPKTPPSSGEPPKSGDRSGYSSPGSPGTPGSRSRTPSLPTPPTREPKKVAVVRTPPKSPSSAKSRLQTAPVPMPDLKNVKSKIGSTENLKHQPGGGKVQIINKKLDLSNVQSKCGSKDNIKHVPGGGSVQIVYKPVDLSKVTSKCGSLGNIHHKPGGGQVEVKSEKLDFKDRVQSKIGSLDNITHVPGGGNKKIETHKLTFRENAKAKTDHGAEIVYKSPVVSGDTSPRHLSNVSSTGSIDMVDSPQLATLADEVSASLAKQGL
Experiment: SPR ProteOn, PHF-tau capture-coupled via HT7, 1:1 model
Description: (§5) Affinity matured monoclonal antibodies were tested for binding to PHF-tau isolated from Alzheimer's disease brain.
(§6) A GLC sensor chip was covalently immobilized with a mouse anti-tau antibody, HT7 (ThermoFisher, catalog# MN1000) using the vendor recommended protocol for amine-coupling chemistry (˜5000 response units, RU). The coupling buffer was 10 mM, pH 4.5 sodium acetate. PHF-tau was prepared by 2-times centrifugation at 5000×g in 5° C. for 10 min. […] After capture-coupling, the surface was activated and deactivated to generate a homogenous PHF-tau surface for antibody binding studies. The anti-tau antibodies and their Fabs (prepared in running buffer, 0.024-75 nM at 5-fold dilutions) were injected at 50 μL/min over the PHF-tau surface to measure binding. The association and dissociation profiles were monitored for 4 minutes and 2 hours, respectively. After dissociation, the sensor chip was regenerated using multiple injections of 10 mM Glycine pH 2.0 and the running buffer. A reference surface (without any PHF-tau) was used to monitor non-specific binding of the injected mAbs or Fabs. HT7 antibody was used as a positive control. The binding sensorgrams for mAbs were fit using a bivalent binding model where the apparent affinity or avidity-driven binding (KD) was reported as the ratio of off-rate and on-rate (koff/kₒₙ). A 1:1 Langmuir binding model was used for kinetics analysis of Fabs.

| Kd [nM] | koff [s⁻¹] | kon [M⁻¹ s⁻¹] | Binder |
| --- | --- | --- | --- |
| 0.031 | 5.31e-05 | 1.72e+06 | B7 |
| 0.0258 | 0.00012 | 4.64e+06 | B8 |

Target: T3, PHF-tau (paired helical filament tau …)
Experiment: SPR ProteOn, PHF-tau capture-coupled via HT7, bivalent model
Description: as §5, §6

| Kd [nM] | koff [s⁻¹] | kon [M⁻¹ s⁻¹] | Binder |
| --- | --- | --- | --- |
| 0.0062 | 1.17e-05 | 1.89e+06 | B2 |
| 0.0025 | 6.8e-06 | 2.68e+06 | B5 |
| 0.002 | 1.27e-05 | 6.45e+06 | B6 |

Target: T3, PHF-tau (paired helical filament tau …)
Experiment: SPR ProteOn, PHF-tau on chip

| fold difference in affinity against B296 [fold] | fold improvement in on-rate compared to the parent antibody (B296) [fold] | Binder |
| --- | --- | --- |
| ≤ 2 |  | B9 |
|  | 3 | B6 |

Target: T4, Peptide-2 (human, phosphothreonine 212, phosphothreonine 217 (tau 2N4R numbering); short chain biotin (SCBiot) and dPEG4 at the N-terminus; amide at the C-terminus)
T4 construct: also called pT212/pT217-tau peptide (Peptide-2)
Experiment: SPR ProteOn, mAb captured, peptide as analyte; range of n=2
Description: as §1, §2, §3

| Kd [nM] | koff | kon | Binder |
| --- | --- | --- | --- |
| 0.0278 to 0.0306 | 0.000242 s⁻¹ and 0.000408 s⁻¹ | 8.7e+06 M⁻¹ s⁻¹ and 1e+07 M⁻¹ s⁻¹ | B1 |
| 0.125 to 0.255 | 0.000788 s⁻¹ | 3.1e+06 M⁻¹ s⁻¹ | B2 |
| 0.126 to 0.217 | 0.000856 s⁻¹ | 3.95e+06 M⁻¹ s⁻¹ | B3 |
| 0.36 to 0.529 | 0.00124 s⁻¹ | 2.34e+06 M⁻¹ s⁻¹ | B4 |

Target: T4, Peptide-2
Experiment: SPR ProteOn, mAb captured, peptide as analyte
Description: as §1, §2, §3

| Kd [nM] | koff [s⁻¹] | kon [M⁻¹ s⁻¹] | Binder |
| --- | --- | --- | --- |
| 0.0292 | 0.000325 | 9.35e+06 | B1 |
| 0.19 | 0.000826 | 5e+06 | B2 |
| 0.172 | 0.000901 | 5.75e+06 | B3 |
| 0.445 | 0.00132 | 3.12e+06 | B4 |

Target: T2, tau phospho-peptide of the direct ELISA …
Experiment: direct ELISA, peptide coated
Description: as §4

| EC50 [nM] | Binder |
| --- | --- |
| 0.433 | B2 |
| 0.164 | B5 |
| 0.0917 | B6 |

Target: T4, Peptide-2
Experiment: SPR ProteOn, mAb captured, peptide as analyte; range of n=2; upper end of n=2 range
Description: as §1, §2, §3

| koff [s⁻¹] | kon [M⁻¹ s⁻¹] | Binder |
| --- | --- | --- |
| 0.000863 | 6.9e+06 | B2 |
| 0.000946 | 7.54e+06 | B3 |
| 0.0014 | 3.89e+06 | B4 |

Target: T3, PHF-tau (paired helical filament tau …)
Experiment: SPR ProteOn, PHF-tau capture-coupled via HT7, bivalent model
Remark: another data set of the same source
Description: A subset of HFA-PT3 monoclonal antibodies was tested for binding to PHF-tau isolated from Alzheimer's disease brain. All interactions were studied at 25° C. using PBS pH 7.4, supplemented with 3 mM EDTA, and 0.005% Tween 20 as running or system buffer. HT7 (Pierce, catalog #MN1000), a mouse anti-tau antibody, was used as a positive control.
The interaction of anti-tau monoclonal antibodies with PHF-tau was analyzed by ProteOn using a biosensor surface prepared by capture-coupling PHF-tau using HT7 as the capture reagent. PHF-tau was prepared by 2-times centrifugation at 5000×g at 5° C. for 10 min; the supernatant from the second centrifugation was then diluted 1/40 in running buffer. To prepare the chip, HT7 was covalently immobilized to the surface of a GLC (ProteOn) sensor chip using the manufacturer's instructions for amine-coupling chemistry (˜5000 response units (RU)). The coupling buffer was 10 mM sodium acetate, pH 4.5. After HT7 immobilization, PHF-tau was injected and captured (˜300 RU) by HT7. After capture, PHF-tau was covalently immobilized to the sensor chip by activation of the chip using the manufacturer's instructions for amine-coupling chemistry. Remaining reactive sites were blocked by the injection of ethanolamine. After preparation and stabilization of the PHF-tau-modified surface and reference surface (containing no antigen), the anti-tau antibodies were diluted in the running buffer and injected in solution (0.12-75 nM in 5-fold dilutions). The association was monitored for 3 minutes (120 μL injected at 40 μL/min). The dissociation was monitored for 15 minutes. Regeneration of the sensor surface was performed using 10 mM Gly pH 2.0. The data for monoclonal antibodies were fit using a bivalent binding model where the apparent affinity (KD) was reported as the ratio of koff/kₒₙ. A Langmuir 1:1 binding model was used for kinetics analysis of Fabs.

| Kd [nM] | koff [s⁻¹] | kon [M⁻¹ s⁻¹] | Binder |
| --- | --- | --- | --- |
| 0.027 | 2.93e-05 | 1.07e+06 | B2 |
| 0.032 | 4.28e-05 | 1.32e+06 | B3 |
| 0.043 | 1.11e-05 | 255000 | B9 |
| 0.042 | 6.03e-05 | 1.44e+06 | B10 |
| 0.061 | 4.08e-05 | 665000 | B4 |

Reference: US20230047413A1 (Janssen / Centocor, published 2023)
